Results taken from patent US20150086555A1.

Tests used:
Details in all cases: remark: other sources report otherwise
[1] = target: T1, recombinant soluble homotrimeric HA of A/northern shoveler/California/HKWF115/07 (H6) (Influenza A virus A/northern shoveler/California/HKWF115/2007(H6N1)); assay: trimeric HA microarray, transfection supernatant set 5
[2] = target: recombinant soluble homotrimeric HA of A/Indonesia/5/05 (H5N1) (Influenza A virus A/Indonesia/5/2005(H5N1)); assay: as above
[3] = target: recombinant soluble homotrimeric HA of A/Hong Kong/156/97 (H5N1) (Influenza A virus A/Hong Kong/156/97 (H5N1)); assay: as above
[4] = target: T2, recombinant soluble homotrimeric HA of A/duck/Yangzhou/02/05 (H8N4) (Influenza A virus A/duck/Yangzhou/02/2005(H8N4)); assay: as above
[5] = target: recombinant soluble homotrimeric HA of A/Egypt/3300-NAMRU3/08 (H5N1) (Influenza A virus A/Egypt/3300-NAMRU3/2008(H5N1)); assay: as above
[6] = target: T3, recombinant soluble homotrimeric HA of A/swine/Ontario/01911-2/99 (H4N6) (Influenza A virus A/Swine/Ontario/01911-2/99 (H4N6)); assay: as above
[7] = target: T4, recombinant soluble homotrimeric HA of A/Vietnam/1203/04 (H5N1) (Influenza A virus A/VietNam/1203/2004(H5N1)); assay: as above
[8] = target: recombinant soluble homotrimeric HA of A/South Carolina/1/18 (H1N1) (Influenza A virus A/South Carolina/1/18 (H1N1)); assay: as above
[9] = target: recombinant soluble homotrimeric HA of A/Anhui/1/05 (H5N1) (Influenza A virus A/Anhui/1/2005(H5N1)); assay: as above
[10] = target: T5, recombinant soluble homotrimeric HA of A/chicken/Vietnam/NCVD-016/08 (H5N1) (Influenza A virus A/chicken/Vietnam/NCVD-016/2008(H5N1)); assay: as above
[11] = target: recombinant homotrimeric HA A/Anhui/1/05 H5N1 (Influenza A virus A/Anhui/1/2005(H5N1)); assay: protein microarray, purified IgG, trimeric HA
[12] = target: recombinant homotrimeric HA A/South Carolina/1/18 H1N1 (Influenza A virus A/South Carolina/1/18 (H1N1)); assay: protein microarray, purified IgG, trimeric HA
[13] = target: recombinant homotrimeric HA A/duck/Yangzhou/02/05 H8N4 (Influenza A virus A/duck/Yangzhou/02/2005(H8N4)); assay: protein microarray, purified IgG, trimeric HA
[14] = target: recombinant homotrimeric HA A/Japan/305/57 H2N2 (Influenza A virus A/Japan/305/1957(H2N2)); assay: protein microarray, purified IgG, trimeric HA
[15] = target: recombinant homotrimeric HA A/Vietnam/1203/04 H5N1 (Influenza A virus A/VietNam/1203/2004(H5N1)); assay: protein microarray, purified IgG, trimeric HA
[16] = target: recombinant homotrimeric HA A/Hong Kong/156/97 H5N1 (Influenza A virus A/Hong Kong/156/97 (H5N1)); assay: protein microarray, purified IgG, trimeric HA
[17] = target: recombinant homotrimeric HA A/California/4/09 H1N1 (Influenza A virus A/California/04/2009(H1N1)); assay: protein microarray, purified IgG, trimeric HA
[18] = target: recombinant homotrimeric HA A/Hong Kong/1073/99 H9N2 (Influenza A virus A/Hong Kong/1073/99 (H9N2)); assay: protein microarray, purified IgG, trimeric HA
[19] = target: recombinant homotrimeric HA A/Egypt/3300-NAMRU3/08 H5N1 (Influenza A virus A/Egypt/3300-NAMRU3/2008(H5N1)); assay: protein microarray, purified IgG, trimeric HA
[20] = target: recombinant homotrimeric HA A/Indonesia/5/05 H5N1 (Influenza A virus A/Indonesia/5/2005(H5N1)); assay: protein microarray, purified IgG, trimeric HA
[21] = target: T6, recombinant soluble homotrimeric HA of A/Japan/305/57 (H2N2) (Influenza A virus A/Japan/305/1957(H2N2)); assay: HA microarray, BCC supernatant
[22] = target: T7, recombinant soluble homotrimeric HA of A/Netherlands/219/03 (H7N7) (Influenza A virus A/Netherlands/219/03(H7N7)); assay: HA microarray, BCC supernatant
[23] = target: T2, recombinant soluble homotrimeric HA of …; assay: HA microarray, BCC supernatant
[24] = target: T3, recombinant soluble homotrimeric HA of …; assay: HA microarray, BCC supernatant
[25] = target: T4, recombinant soluble homotrimeric HA of …; assay: HA microarray, BCC supernatant
[26] = target: T6, recombinant soluble homotrimeric HA of …; assay: trimeric HA microarray, transfection supernatant set 5
[27] = target: T8, recombinant soluble homotrimeric HA of A/California/4/09 (H1N1) (Influenza A virus A/California/04/2009(H1N1)); assay: as above
[28] = target: T9, recombinant soluble homotrimeric HA of A/Solomon Islands/3/06 (H1N1) (Influenza A virus A/Solomon Islands/3/2006(H1N1)); assay: as above
[29] = target: T7, recombinant soluble homotrimeric HA of …; assay: as above
[30] = target: recombinant homotrimeric HA A/Netherlands/219/03 H7N7 (Influenza A virus A/Netherlands/219/03(H7N7)); assay: protein microarray, purified IgG, trimeric HA
[31] = target: recombinant homotrimeric HA A/Hong Kong/2108/03 H9N2 (Influenza A virus A/HK/2108/2003(H9N2)); assay: protein microarray, purified IgG, trimeric HA
[32] = target: recombinant homotrimeric HA A/Solomon Islands/3/06 H1N1 (Influenza A virus A/Solomon Islands/3/2006(H1N1)); assay: protein microarray, purified IgG, trimeric HA
[33] = target: recombinant homotrimeric HA A/northern shoveler/California/HKWF115/07 H6N4 (Influenza A virus A/northern shoveler/California/HKWF115/2007(H6N1)); assay: protein microarray, purified IgG, trimeric HA
[34] = target: recombinant homotrimeric HA A/swine/Ontario/01911-2/99 H4N6 (Influenza A virus A/Swine/Ontario/01911-2/99 (H4N6)); assay: protein microarray, purified IgG, trimeric HA
[35] = target: recombinant homotrimeric HA A/chicken/Vietnam/NCVD-016/08 H5N1 (Influenza A virus A/chicken/Vietnam/NCVD-016/2008(H5N1)); assay: protein microarray, purified IgG, trimeric HA
[36] = target: T1, recombinant soluble homotrimeric HA of …; assay: HA microarray, BCC supernatant
[37] = target: T8, recombinant soluble homotrimeric HA of …; assay: HA microarray, BCC supernatant
[38] = target: T9, recombinant soluble homotrimeric HA of …; assay: HA microarray, BCC supernatant
[39] = target: T5, recombinant soluble homotrimeric HA of …; assay: HA microarray, BCC supernatant

B1: TCN-542 (5079_A16) (antibody, V domains shown)
VH: QVQLQESGPGLVKPSQTLSLTCTVSGGSISSGNYYWNWVRQHPGKGLEWIGYIYYRGSTFYNPSLKSRVTISIDTSKNQFSLRLSSVTAADTAVYYCAKDTRSSLDNYQYGMDVWGQGTTVTVSS
VL: QTVVTQEPSLTVSPGGTVTLTCASSTGAVTSSYFPNWFQQKPGQAPRPLIYSTTIRHSWTPARFSGSLLGGKAALTLSGVQPEDEADYYCLLYSGGDPVAFGGGTKLTVL
B1 was tested, and the Trimeric HA Binding: RLU [1] was 2370 RLU, the Trimeric HA Binding: RLU [2] was 1760 RLU and the Trimeric HA Binding: RLU [3] was 786 RLU. It also gave a Trimeric HA Binding: RLU [4] of 11600 RLU, a Trimeric HA Binding: RLU [5] of 14800 RLU and a Trimeric HA Binding: RLU [6] of 14300 RLU. For the same binder, the Trimeric HA Binding: RLU [7] was 29500 RLU, the Trimeric HA Binding: RLU [8] was 1120 RLU and the Trimeric HA Binding: RLU [9] was 7410 RLU. The Trimeric HA Binding: RLU [10] was 5460 RLU, the Trimeric HA Binding: RLU [11] was 10500 RLU and the Trimeric HA Binding: RLU [12] was 117 RLU. The Trimeric HA Binding: RLU [13] was 182 RLU, the Trimeric HA Binding: RLU [14] was 502 RLU and the Trimeric HA Binding: RLU [15] was 1060 RLU. The Trimeric HA Binding: RLU [16] was 894 RLU, the Trimeric HA Binding: RLU [17] was 238 RLU and the Trimeric HA Binding: RLU [18] was 588 RLU. It also gave a Trimeric HA Binding: RLU [19] of 730 RLU, a Trimeric HA Binding: RLU [20] of 108 RLU and a Trimeric HA Binding: RLU [21] of 142 RLU. It also gave a Trimeric HA Binding: RLU [22] of 909 RLU, a Trimeric HA Binding: RLU [23] of 332 RLU and a Trimeric HA Binding: RLU [24] of 350 RLU. It also gave a Trimeric HA Binding: RLU [25] of 306 RLU.

B2: TCN-544 (5082_A19) (antibody, V domains shown)
VH: QVQLQESGPGLVKPSETLSLTCTVSRGSIGHYFWSWIRQPPGKGLEWIGYISYSGSTKYNPSLRSRVTISVDTSKNQFSLNLNSVTATDTALYYCAREDYDILTGAGPGMEVWGQGTTVTVSS
VL: QSMLTQPPSASGTPGQRVTISCSGSSSNIGSNTVNWFKHLPGTAPKLLIYRNDLRPSGVPDRFSGSKSGTSASLAISGLQSEDEADYYCATWDDSLNGFYVFGTGTKVTVL
For B2, the Trimeric HA Binding: RLU [1] was 2920 RLU, the Trimeric HA Binding: RLU [26] was 1000 RLU and the Trimeric HA Binding: RLU [27] was 706 RLU. For the same binder, the Trimeric HA Binding: RLU [28] was 997 RLU, the Trimeric HA Binding: RLU [29] was 4650 RLU and the Trimeric HA Binding: RLU [4] was 9440 RLU. The Trimeric HA Binding: RLU [5] was 19400 RLU, the Trimeric HA Binding: RLU [6] was 2390 RLU and the Trimeric HA Binding: RLU [8] was 1330 RLU. The Trimeric HA Binding: RLU [10] was 3070 RLU, the Trimeric HA Binding: RLU [30] was 203 RLU and the Trimeric HA Binding: RLU [12] was 148 RLU. The Trimeric HA Binding: RLU [13] was 380 RLU, the Trimeric HA Binding: RLU [31] was 145 RLU and the Trimeric HA Binding: RLU [32] was 1010 RLU. For the same binder, the Trimeric HA Binding: RLU [33] was 82 RLU, the Trimeric HA Binding: RLU [14] was 450 RLU and the Trimeric HA Binding: RLU [34] was 154 RLU. It also gave a Trimeric HA Binding: RLU [17] of 285 RLU, a Trimeric HA Binding: RLU [18] of 534 RLU and a Trimeric HA Binding: RLU [19] of 2140 RLU. It also gave a Trimeric HA Binding: RLU [35] of 402 RLU, a Trimeric HA Binding: RLU [36] of 1690 RLU and a Trimeric HA Binding: RLU [21] of 187 RLU. The Trimeric HA Binding: RLU [37] was 281 RLU, the Trimeric HA Binding: RLU [38] was 179 RLU and the Trimeric HA Binding: RLU [22] was 1620 RLU. The Trimeric HA Binding: RLU [23] was 464 RLU, the Trimeric HA Binding: RLU [24] was 316 RLU and the Trimeric HA Binding: RLU [39] was 272 RLU.
